Experiment [1] deals with T1, human SIRPA_V2 protein (human, UniProt P78324 31-504).
T1 construct: Expressed on 293α cells from pcDNA3.2 V5-DEST or pFLAG V5-DEST (FLAG-tagged) vectors; also called human SIRPA Variant 2; ECD variant (full-length, amino acids 1 to 504)
The experiment in a line: blocking cell-based ELISA: peroxidase-labeled CD47-Fc (1 µg/mL) on 293α cells expressing SIRPA_V2. On the procedure: After the culture supernatant of the human SIRPA_V1 or V2 expression vector-introduced 293 cells prepared in Example 9)-1 was removed, 50 μL per well of various anti-SIRPA antibodies or various control Human IgG diluted with 5% FBS-containing PBS to a final concentration of 0 to 10,000 ng/ml was added to each of pcDNA3.2 V5-DEST-SIRPA_V1 or V2-introduced 293α cells, immediately followed by addition of 50 µL per well of peroxidase-labeled CD47-Fc prepared with 5% FBS-containing PBS at 1 μg/mL, and the mixture was allowed to stand at 4° C. for one hour. Thereafter, the SIRPA-CD47 binding inhibitory activity was evaluated in the same manner as in 1)-6-3.
Target sequence in this assay (P78324 other isoform, or with tags, fused parts or gaps limits assumed): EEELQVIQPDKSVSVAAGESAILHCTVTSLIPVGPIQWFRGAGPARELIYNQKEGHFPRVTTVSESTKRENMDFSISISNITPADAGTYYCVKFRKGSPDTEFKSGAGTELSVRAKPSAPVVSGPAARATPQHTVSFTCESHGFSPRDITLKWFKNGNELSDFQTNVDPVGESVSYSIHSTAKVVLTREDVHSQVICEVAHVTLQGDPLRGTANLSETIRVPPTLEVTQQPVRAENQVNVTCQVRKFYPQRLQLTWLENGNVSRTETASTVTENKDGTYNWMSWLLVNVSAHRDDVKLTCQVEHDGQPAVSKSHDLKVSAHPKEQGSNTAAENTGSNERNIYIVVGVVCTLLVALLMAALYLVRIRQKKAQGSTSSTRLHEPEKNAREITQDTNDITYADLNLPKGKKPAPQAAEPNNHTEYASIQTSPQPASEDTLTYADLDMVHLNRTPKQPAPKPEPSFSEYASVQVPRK

For the next experiment, the target named is T2, human SIRPG (human, UniProt Q9P1W8 29-387).
T2 construct: whole, on cells; FLAG-tagged (pFLAG V5-DEST), on CHO-K1 cells; also called SIRPγ; signal regulatory protein γ
The experiment in a line: flow cytometry on CHO-K1 cells expressing FLAG-tagged human SIRPG; PE anti-human IgG; MFI standardized to secondary antibody alone. On the procedure: SIRPβ1 (signal regulatory protein β1: the amino acid sequence thereof is published as RefSeq accession number NP_006056) and SIRPγ (signal regulatory protein γ: the amino acid sequence thereof is published as RefSeq accession number NP_061026) are molecules belonging to the SIRPA family. In the present invention, “SIRPα” may be referred to as “SIRPA,” “SIRPβ1” may be referred to as […] and “SIRPγ” may be referred to as “SIRPG.” CHO-K1 cells were prepared in a 10% FBS-containing Ham's F-12K medium at 3.3×10⁵ cells/mL and cultured overnight at 37° C. under a 5% CO₂ condition. pFLAG V5-DEST-human SIRPβ, pFLAG V5-DEST-human SIRPG, or pFLAG V5-DEST was introduced into the cells using Lipofectamine LTX (Invitrogen), and cells were cultured in a 10% FBS-containing Ham's F-12K medium at 37° C. under a 5% CO₂ condition for 24 hours. The obtained introduced cells were collected and seeded on a 96-well plate. After the culture supernatant was removed, 100 μL per well of various anti-human SIRPA antibodies or various control human IgG was added to each of various gene introduced cells at a final concentration of 0 to 10,000 ng/mL, and the mixture was allowed to stand at 4° C. for 25 minutes. After the mixture was centrifuged, the supernatant was removed, and cells were washed twice with 5% FBS-containing PBS. […]
After the mixture was centrifuged, and the supernatant was removed, cells were suspended in 100 μL per well of 1× BD Stabilizing Fixative (Becton Dickinson), and the cell count was measured by flow cytometry (FACS Canto II: Becton Dickinson). […] Cells were characterized by detecting forward scattered (FSC) light and side-scattered (SSC) light, and then the mean fluorescence intensity of PE was calculated. Binding of various antibodies to the family molecules was calculated by standardizing the fluorescence intensity using the mean fluorescence intensity of a sample in which the secondary antibody alone was allowed to react.

The target of the next experiment is T3, SIRPA_V2_IgV (human).
T3 construct: Secreted recombinant protein; The crystal model held residues 33 to 143 of human SIRPA Variant 2
Description: SPR Biacore T200, antibody captured on anti-human IgG (Fc), SIRPA_V2_IgV as analyte (0.25 to 16 nM), 1:1 model. On the procedure: The dissociation constants were measured by a capture method comprising capturing each antibody as a ligand to an Anti-Human IgG (Fc) antibody immobilized using Human Antibody Capture Kit (GE Healthcare Bioscience Corp.) and measuring an antigen as an analyte, using Biacore T200 (GE Healthcare Bioscience Corp.). HBS-EP+ (GE Healthcare Bioscience Corp.) was used as a running buffer, and CM5 (GE Healthcare Bioscience Corp.) was used as a sensor chip. Onto the chip, 2 μg/mL of various antibodies were added at 10 μL/min for 30 seconds, then a serially diluted solution (0.25 to 16 nM) of the human SIRPA protein as an antigen was added at a flow rate of 30 μL/min for 120 seconds, and subsequently the dissociation phase for 600 seconds was monitored. As a regenerant, 3 M magnesium chloride (GE Healthcare Bioscience Corp.) was added at a flow rate of 20 μL/min for 30 seconds. For data analysis, a binding rate constant (ka), a dissociation rate constant (kd), and a dissociation constant (KD; KD=kd/ka) were calculated using a 1:1 binding model.

Experiment [2] deals with T1, human SIRPA_V2 protein. Description: blocking cell-based ELISA: peroxidase-labeled CD47-Fc (10,000 ng/mL) on 293α cells expressing SIRPA_V2; y axis = CD47-Fc signal in % of no antibody [ii]. (In general: An ELISA detects its analyte on a solid surface through an enzyme-linked reagent.)
The next experiment has as its target T4, monkey SIRPA protein (cynomolgus monkey, UniProt P78324 31-504 (human entry)).
T4 construct: Expressed on 293α cells from pcDNA3.2 V5-DEST or pFLAG V5-DEST vectors; also called cynomolgus monkey SIRPA; cSIRPA
T4 chain: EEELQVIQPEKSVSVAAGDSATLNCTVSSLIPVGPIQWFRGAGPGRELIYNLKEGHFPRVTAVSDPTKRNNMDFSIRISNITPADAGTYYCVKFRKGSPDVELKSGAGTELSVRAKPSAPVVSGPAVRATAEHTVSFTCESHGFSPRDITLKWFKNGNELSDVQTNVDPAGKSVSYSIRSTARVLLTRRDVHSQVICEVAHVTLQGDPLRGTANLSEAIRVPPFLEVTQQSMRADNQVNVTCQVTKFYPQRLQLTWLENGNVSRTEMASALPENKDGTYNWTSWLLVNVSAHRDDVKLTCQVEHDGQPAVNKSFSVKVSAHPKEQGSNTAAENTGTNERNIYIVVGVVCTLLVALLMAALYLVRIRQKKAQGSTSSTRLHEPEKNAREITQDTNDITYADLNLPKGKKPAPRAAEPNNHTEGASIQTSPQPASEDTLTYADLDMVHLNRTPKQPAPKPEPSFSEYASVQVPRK
Description: cell-based ELISA on 293α cells expressing FLAG-tagged monkey SIRPA; Abs 490 normalized to FLAG tag.

T3 sequence (chain, as listed by the source limits assumed): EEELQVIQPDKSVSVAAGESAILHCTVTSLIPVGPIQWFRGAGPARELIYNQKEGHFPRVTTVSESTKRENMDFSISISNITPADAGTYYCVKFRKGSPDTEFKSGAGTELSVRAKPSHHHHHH
T2 sequence (Q9P1W8 29-387): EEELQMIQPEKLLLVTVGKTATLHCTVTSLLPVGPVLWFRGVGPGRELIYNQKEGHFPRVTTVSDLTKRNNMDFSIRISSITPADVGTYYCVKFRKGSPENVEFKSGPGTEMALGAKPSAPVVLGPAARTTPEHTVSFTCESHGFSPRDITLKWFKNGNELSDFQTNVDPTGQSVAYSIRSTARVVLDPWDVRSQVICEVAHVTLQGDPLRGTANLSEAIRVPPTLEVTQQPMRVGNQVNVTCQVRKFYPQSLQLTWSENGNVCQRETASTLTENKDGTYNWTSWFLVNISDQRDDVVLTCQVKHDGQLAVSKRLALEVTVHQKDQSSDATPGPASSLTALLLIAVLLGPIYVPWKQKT

B1: humanized anti-SIRPA antibody hD13_H1L3 (antibody, human IgG4 S228P, kappa, F234A L235A, V domains shown)
VH: QVQLVESGGGVVQPGRSLRLSCAASGFTFSDYGMIWVRQAPGKGLEWVASISSSSSYIYYADSVKGRFTISRDNSKNRLYLQMNSLRAEDTAVYYCARRYYGFNYPFDYWGQGTMVTVSS
VL: DTQLTQSPSSLSASVGQRVTITCGASKSVRTYMHWYQQKPGKQPKLLIYSASNLEAGVPSRFSGSGSGTDFTLTISSLQPEDFATYYCQQSNEPPYTFGQGTKLEIKR
notes: hH1 heavy chain (IgG4proFALA) and hL3 kappa light chain; also called hD13_HIL3; HIL3 antibody
By IC50 is commonly meant the concentration needed to halve the response being measured. For orientation: EC50 (read off the curve) means the concentration needed to bring the measured effect to its halfway point. Usually Kd stands for a measure of binding affinity in units of concentration. As for B1, 1.3 µg/mL corresponded to half-maximal inhibition in the experiment with human SIRPA_V2 protein [1] (IC50). In addition, the “EC50 (read off the curve)” value with human SIRPG was about 0.03 µg/mL. The Kd in the experiment with SIRPA_V2_IgV was 1.17 nM.

B2: human chimeric anti-SIRPA antibody cD13 (antibody, human IgG4 S228P, kappa, F234A L235A, V domains shown)
VH: EVQLVESGGGLVQPGRSLKLSCLASGFTFSDYGMIWVRQAPGKGLEWVASISSSSSYIYYADTVKGRFTISRENAKNTLFLHMTSLRSEDTALYYCARRYYGFNYPFDYWGQGVMVTVSS
VL: DTVLTQSPALAVSLGQRVTISCGASKSVRTYMHWYQQKSGQQPKLLIYSASNLEAGVPSRFSGSGSGTDFTLTIDPVEADDIANYYCQQSNEPPYTFGAGTKLELKR
notes: Human IgG4proFALA heavy chain, human kappa light chain; also called cD13 (IgG4pf); human chimeric antibody D13
As for B2, in the experiment with human SIRPA_V2 protein [2], the “IC50 (read off the curve)” value is about 0.3 µg/mL. Also, the “EC50 (read off the curve)” value in the experiment with monkey SIRPA protein was about 0.1 µg/mL.

The values are drawn from patent publication US20260098102A1 (NATIONAL UNIVERSITY CORPORATION KOBE UNIVERSITY, published 2026).
